T1: BMP6 (UniProt P22004 382-513)
T1 chain: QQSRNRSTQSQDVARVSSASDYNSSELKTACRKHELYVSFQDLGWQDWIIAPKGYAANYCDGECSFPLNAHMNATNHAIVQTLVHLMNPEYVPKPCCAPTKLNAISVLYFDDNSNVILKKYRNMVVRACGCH

T2: activin A (UniProt P08476 311-426)
T2 chain: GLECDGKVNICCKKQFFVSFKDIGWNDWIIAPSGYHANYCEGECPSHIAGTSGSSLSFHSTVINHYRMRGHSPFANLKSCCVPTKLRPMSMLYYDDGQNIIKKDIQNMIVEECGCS

T3: activin B (UniProt P09529 293-407)
T3 chain: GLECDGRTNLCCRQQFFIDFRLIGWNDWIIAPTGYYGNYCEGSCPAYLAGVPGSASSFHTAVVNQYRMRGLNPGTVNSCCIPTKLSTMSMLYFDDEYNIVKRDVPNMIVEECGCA

B1: GDF11 (ligand)
chain: NLGLDCDEHSSESRCCRYPLTVDFEAFGWDWIIAPKRYKANYCSGQCEYMFMQKYPHTHLVQQANPRGSAGPCCTPTKMSPINMLYFNDKQQIIYGKIPGMVVDRCGCS
B2: BMP10 (ligand)
chain: NAKGNYCKRTPLYIDFKEIGWDSWIIAPPGYEAYECRGVCNYPLAEHLTPTKHAIIQALVHLKNSQKASKACCVPTKLEPISILYLDKGVVTYKFKYEGMAVSECGCR
B3: ActRIIB-G1Fc (SEQ ID NO: 519) (Fc fusion)
chain: GRGEAETRECIYYNANWELERTNQSGLERCEGEQDKRLHCYASWRNSSGTIELVKKGCWLDDFNCYDRQECVATEENPQVYFCCCEGNFCNERFTHLPEAGGPEVTYEPPPTAPTGGGTHTCPPCPAPELLGGPSVFLFPPKPKDTLMISRTPEVTCVVVDVSHEDPEVKFNWYVDGVEVHNAKTKPREEQYNSTYRVVSVLTVLHQDWLNGKEYKCKVSNKALPVPIEKTISKAKGQPREPQVYTLPPSREEMTKNQVSLTCLVKGFYPSDIAVEWESNGQPENNYKTTPPVLDSDGSFFLYSKLTVDKSRWQQGNVFSCSVMHEALHNHYTQKSLSLSPGK
B4: BMP9 (ligand)
chain: SAGAGSHCQKTSLRVNFEDIGWDSWIIAPKEYEAYECKGGCFFPLADDVTPTKHAIVQTLVHLKFPTKVGKACCVPTKLSPISVLYKDDMGVPTLKYHYEGMSVAECGCR
B5: Activin A (ligand)
chain: T2 chain

How the values were obtained:
L79K / F82K = assay: SPR; 37C
K74A = assay: SPR; 37C
K55A / F82I = assay: SPR; 37C
Q98I = assay: SPR; 25C
Q98R = assay: SPR; 25C
Q98A = assay: SPR; 25C
N35F = assay: SPR; 25C
L38R = assay: SPR; 25C
Q98V = assay: SPR; 25C
Q98L = assay: SPR; 25C
L38D = assay: SPR; 25C
N35Q = assay: SPR; 25C
L38Q = assay: SPR; 25C
Q98K = assay: SPR; 25C
BMP10 = molecular target: B2; assay: SPR; 37 C
BMP6 = molecular target: T1, BMP6; assay: SPR; 37 C
BMP9 = molecular target: B4; assay: SPR; 37 C
activin A = molecular target: T2, activin A; assay: SPR; 37C
GDF11 = molecular target: B1; assay: SPR; 37C
GDF8 = GDF8 (UniProt O14793 267-375); assay: SPR; 37C
activin B = molecular target: T3, activin B; assay: SPR; 37C

Sequence of GDF8 (O14793 267-375): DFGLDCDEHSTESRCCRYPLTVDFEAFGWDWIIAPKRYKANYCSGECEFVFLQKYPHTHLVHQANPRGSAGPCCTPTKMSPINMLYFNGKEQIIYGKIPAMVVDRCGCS

| Kd (L79K / F82K) [pM] | Kd (K74A) [pM] | Kd (K55A / F82I) [pM] | Kd (Q98I) [pM] | Kd (Q98R) [pM] | Kd (Q98A) [pM] | Kd (N35F) [pM] | Kd (L38R) [pM] | Kd (Q98V) [pM] | Kd (Q98L) [pM] | Kd (L38D) [pM] | Kd (N35Q) [pM] | Kd (L38Q) [pM] | Kd (Q98K) [pM] | Binder | other results |
| --- | --- | --- | --- | --- | --- | --- | --- | --- | --- | --- | --- | --- | --- | --- | --- |
| 1600 | 430 | 90 | 49 | 20 | 37 | 17 | 7 | 33 | 43 | 30 | 20 | 21 | 37 | B1 |  |
| 68 | 33 | 7 | 210 | 320 | 210 | 220 | 110 | 48 | 65 | 150 | 270 | 89 | 68 | B2 |  |
|  |  |  |  |  |  |  |  |  |  |  |  |  |  | B3 | Kd (BMP10): 8.41 pM; Kd (BMP6): 431 pM; Kd (BMP9): 83.1 pM; Kd (activin A): 13.5 pM; Kd (GDF11): 4.91 pM; Kd (GDF8): 79.5 pM; Kd (activin B): 22.5 pM |
|  | 360 | 134 | 59 | 74 | 43 |  | 50 | 47 | 71 | 63 |  | 33 | 69 | B4 |  |
| 640 | 34 | 47 | 157 | 300 | 155 | 290 | 230 | 160 | 220 | 230 | 320 | 200 | 145 | B5 |  |

Reference: US20230183319A1 (published 2023)
